Numbering of substitutions follows the chain as printed. Names may count otherwise.
B1: EGFP-Smad2 WT: mouse EGFP-Smad2 wild type transfected into HeLa cells (protein, UniProt Q62432 2-467, looked up)
Mothers against …: SSILPFTPPVVKRLLGWKKSAGGSGGAGGGEQNGQEEKWCEKAVKSLVKKLKKTGRLDELEKAITTQNCNTKCVTIPSTCSEIWGLSTANTVDQWDTTGLYSFSEQTRSLDGRLQVSHRKGLPHVIYCRLWRWPDLHSHHELKAIENCEYAFNLKKDEVCVNPYHYQRVETPVLPPVLVPRHTEILTELPPLDDYTHSIPENTNFPAGIEPQSNYIPETPPPGYISEDGETSDQQLNQSMDTGSPAELSPTTLSPVNHSLDLQPVTYSEPAFWCSIAYYELNQRVGETFHASQPSLTVDGFTDPSNSERFCLGLLSNVNRNATVEMTRRHIGRGVRLYYIGGEVFAECLSDSAIFVQSPNCNQRYGWHPATVCKIPPGCNLKIFNNQEFAALLAQSVNQGFEAVYQLTRMCTIRMSFVKGWGAEYRRQTVTSTPCWIELHLNGPLQWLDKVLTQMGSPSVRCSSMS
modifications: EGFP fusion
notes: mouse EGFP-Smad2 wild type transfected into HeLa cells
B2: Smad2-W422A: W422A mutant of full-length Smad2; specific PI(4,5)P2 binding-compromised (protein)
chain: MSSILPFTPPVVKRLLGWKKSAGGSGGAGGGEQNGQEEKWCEKAVKSLVKKLKKTGRLDELEKAITTQNCNTKCVTIPSTCSEIWGLSTANTVDQWDTTGLYSFSEQTRSLDGRLQVSHRKGLPHVIYCRLWRWPDLHSHHELKAIENCEYAFNLKKDEVCVNPYHYQRVETPVLPPVLVPRHTEILTELPPLDDYTHSIPENTNFPAGIEPQSNYIPETPPPGYISEDGETSDQQLNQSMDTGSPAELSPTTLSPVNHSLDLQPVTYSEPAFWCSIAYYELNQRVGETFHASQPSLTVDGFTDPSNSERFCLGLLSNVNRNATVEMTRRHIGRGVRLYYIGGEVFAECLSDSAIFVQSPNCNQRYGWHPATVCKIPPGCNLKIFNNQEFAALLAQSVNQGFEAVYQLTRMCTIRMSFVKGAGAEYRRQTVTSTPCWIELHLNGPLQWLDKVLTQMGSPSVRCSSMS
modifications: left off: His6, N-terminal, state not stated
B3: Smad2-K420A: K420A mutant of full-length Smad2; predominantly TβRI binding-compromised (protein)
chain: B2 chain with K420A, A422W
modifications: left off: His6, N-terminal, state not stated
B4: Smad2 WT: bacterially expressed full-length Smad2 wild-type (protein)
chain: B2 chain with A422W
modifications: left off: His6, N-terminal, state not stated
notes: bacterially expressed full-length Smad2 wild-type

System: HeLa cells
Experiment: TIRF imaging of PM localization of EGFP-Smad2
Assay type: cell-based
Conditions: for PM localization after TGF-β stimulation: HeLa cells with endogenous Smad2 suppressed
Protocol: Figure 4 Quantitative imaging analyses of spatiotemporal dynamics of Smad2.A, TIRF images of mouse EGFP-Smad2-WT transfected into HeLa cells whose endogenous Smad2 is suppressed by siRNA. Images were taken before and 5 min after TGF-β stimulation (10 ng/ml) with and without PI(4,5)P2 depletion. A pseudo-coloring scheme was used with orange and blue representing the highest and the lowest intensity, respectively. B, kinetics of TGF-β stimulated (10 ng/ml) PM localization of EGFP-Smad2-WT (blue), -K420A (green), and -W422A (orange) transfected into HeLa cells the endogenous Smad2 of which was suppressed by siRNA. For EGFP-Smad2-WT, the effect of PI(4,5)P2 depletion (black) and TβRI inhibition by SB-431542 (10 μM for 36 h) (red) were measured. Data points indicate average ±S.D. (n = 10 cells). C, spatially resolved PM PI(4,5)P2 concentration ([PI(4,5)P2]) profiles calculated from two-channel cross-sectional images of HeLa cells (before and 5 min after 10 ng/ml TGF-β stimulation and after PI(4,5)P2 depletion). Each cell is a representative of more than ten cells analyzed. Spatially averaged [PI(4,5)P2] values for each cell type are shown. The z-axis scale indicates [PI(4,5)P2] in mol%. A pseudo-coloring scheme with red and blue representing the highest (1.5 mol%) and the lowest (0 mol%) concentration, respectively, is used to illustrate the spatial [PI(4,5)P2] heterogeneity. Scale bars indicate 10 μm. D, dual color single-molecule tracking of EGFP-PLCδ-PH and SNAP-TMR-labeled TβRI at the PM of HeLa cells. Time courses of the half-life of colocalization for SNAP-TMR-labeled TβRI and EGFP-PLCδ-PH after 10 ng/ml TGF-β stimulation were determined with (orange) and without (blue) PI(4,5)P2 depletion. Data points indicate average ±S.D. (n = 10 cells). E, time courses of the half-life of colocalization for SNAP-TMR-labeled TβRI and EGFP-Smad2 determined by dual color single-molecule tracking analysis. Colocalization of TβRI with EGFP-Smad2-WT (blue), -K420A (green), -W422A (orange), E425K (red), Y426A (cyan), and -R427A/R428A (black) transfected into HeLa cells whose endogenous Smad2 was suppressed by siRNA is shown. For EGFP-Smad2-WT, the effect of PI(4,5)P2 depletion (purple) was measured. Data points indicate average ±S.D. (n = 10 cells). […] TEXT PRINTED IN THE PICTURE: (C) PI(4,5)P2: [PI(4,5)P2] = 1.05 ± 0.20 mol% (HeLa unstimulated); [PI(4,5)P2] = 1.00 ± 0.40 mol% (HeLa 5 min after TGFβ); [PI(4,5)P2] = 0.16 ± 0.08 mol% (HeLa After PI(4,5)P2 depletion) DOUBTS OF THE COPYIST ABOUT THIS PICTURE: Panel C: the printed values are measured membrane concentrations of PI(4,5)P2 in HeLa cells under three conditions, not an activity or property of a compound; it is uncertain whether they count as a result for a substance
Quantitative TIRF microscopy imaging of PM localization of EGFP tagged Smad2 WT and mutants was performed using custom-built internal reflection fluorescence microscope. WT HeLa cells or PI(4,5)P2 depleted HeLa cells were plated on the 8-well chambered cover glass (Lab-Tek, Thermo Fisher Scientific) at the density of 1 × 10^5 for 24 h. Endogenous Smad2 was suppressed using SiRNA and EGFP-Smad2 or mutants were transfected into cells using the jetPRIME system (Polyplus-transfection) according to the manufacturer's protocols. The transfected HeLa cells were serum starved for 16 h prior imaging. PM-bound EGFP-Smad2 fraction was monitored before and after stimulation with 10 ng/ml TGF-β up to 15 min. For EGFP-Smad2 WT, the effect of TβRI inhibition was monitored by incubating cells with 10 μM of SB-431542 for 36 h. Image analysis was performed using Image J software. Mean intensity of the EGFP-Smad2 signal was calculated for each time point, and final graph was plot by subtracting the mean intensity at 0 min from the mean intensity of each time point. More than ten cells were analyzed for each data point.

Molecule	PM localization after TGF-β stimulation (10 ng/ml TGF-β)	PM residence / dissociation of Smad2 (HeLa cells, 10 ng/ml TGF-β, SB-431542 10 μM for 36 h where used)	time of peak PM translocation after TGF-β stimulation (HeLa cells, 10 ng/ml TGF-β)	PM translocation after PI(4,5)P2 depletion (HeLa cells, rapamycin-induced Inp54 recruitment)
B1	clearly visible			
B2	little PM localization			
B3	able to migrate to the PM as fast as WT	slow dissociation		
B4			5 min	abrogated

Source: paper PMC8567202, “Phosphoinositide-binding activity of Smad2 is essential for its function in TGF-β signaling” (The Journal of Biological Chemistry, 2021)
